Measurements as given in article PMC10101019.

Biological target: DENV-2 particles (dengue virus 2)

B1: Trx-tagged mucin protein of Aedes aegypti (natural protein)
chain: MQTFACICLISILISESFGKFDTPADPVFSDDVTDYDSPSGIDYYDVKDYPMIPGELNVYRKTKPGGLLPSSDVDMKGKMLTSKEVTTKPRNIPTRQHRVQNRIRKPARFSTVVPLPTAALTAPQCILQRTTPKPLWRREGGRVIIDGSDPNIDIFKVMRESRRRPTEAPKPTGNLPMRDIVGNEIKPETASNQFLVLGSVLRCRETKQEVHEHRTRNSRVEISDPTVTGLTVEYPPNIIRLTHRFESTSTGGKAFVFRTMNGKQGILKLKWYSCPTRNSG
With B1 the DENV-2 titer by focus-forming assay 6 days after microinjection of DENV-2 particles with anti-mucin antibodies into Ae. aegypti, against DENV-2 with PBS or pre-immune serum (% reduction in DENV-2 titer) was 12.5.
